Test [1] addresses T1, human KDR (VEGFR2) on cells (human, UniProt P35968 20-1356). The test can be described thus: cell-based or functional assay.
The target in test [2] is T2, soluble KDR (VEGF Receptor 2 D1-7, Cat. #676490, Calbiochem) (human, UniProt P35968 20-764).
T2 construct: extracellular domain; Bought reagent; also called soluble human KDR; immobilized soluble KDR
Description: ELISA, plate-coated soluble KDR 250 ng/mL, hybridoma supernatant 1:5. The protocol: To screen by binding to immobilized soluble KDR, plates were coated with KDR (Calbiochem) at 250 ng/mL overnight at 4° C. After blocking and washing the coated plates, the candidate hybridoma supernatants (at 1:5 dilution) were transferred to the plates and incubated for one hour at room temperature. The plates were then washed and incubated with secondary antibody (at 1:4000 dilution) for one hour at room temperature.
A general note: An ELISA detects its analyte on a solid surface through an enzyme-linked reagent.

Test [3] deals with T1, human KDR (VEGFR2) on cells. The test can be described thus: cell-based or functional assay. The source holds these as a separate data set.
For test [4] the target is unchanged. The test can be described thus: cell-based or functional assay. The source holds these as a separate data set.
The target of test [5] is T3, mouse KDR (Flk-1)/Fc (Cat. #443-KD/CF, R&D Systems) (mouse, UniProt P35918 20-762).
T3 construct: Bought reagent; also called mouse VEGFR2; KDR mouse ortholog; Fc part of the bought chimera not given
The test can be described thus: ELISA, plate-coated Flk-1/Fc 500 ng/mL, hybridoma supernatant 1:5. The protocol: The cross-reactivity of antibodies in the hybridoma supernatant was tested against KDR mouse ortholog (mouse VEGFR2, or Flk-1) and human VEGFR1 (Flt-1). Cross-reactivity was measured using an ELISA based assay.
After washing and blocking the plates, the antibody-containing supernatants were added (at 1:5 dilution) into the coated wells and incubated for one hour at room temperature. The plates were then incubated with mouse anti-human IgG 2, 3 and 4 and subsequently with goat anti-mouse IgG Fc POD, to detect and measure bound antibodies.

For a further test, the target named is T4, b-KDRIg4-7-myc-his (UniProt P35968 328-764, prefix 'b-' not explained; captured on neutravidin-coated plates (presumably biotinylated, site not stated)).
T4 construct: domain: Ig4-7; The text calls it 'a KDR antibody containing the Ig4-7 domain'; it is read as the KDR fragment; Purified on a nickel column; also called Ig4-7 domain of KDR; soluble KDR Ig4-7; not shown: myc-his tag of the pSecTag vector
The test can be described thus: ELISA, b-KDRIg4-7-myc-his 1 ug/mL on neutravidin, hybridoma supernatant 1:5. The protocol: To screen by binding to the Ig4-7 domain of KDR, plates were first coated with neutravadin (Pierce) at 4 μg/mL and incubated overnight at 4° C. The plates were then blocked and subsequently incubated with b-KDRIg4-7-myc-his at 1 μg/mL for one hour at room temperature. Candidate hybridoma supernatants (at 1:5 dilution) were transferred to the plates and incubated for one hour at room temperature. The plates were then washed and incubated with goat anti-human IgG Fc POD (at 1:4000 dilution) for one hour at room temperature.

The target of test [6] is T1, human KDR (VEGFR2) on cells. The test can be described thus: FACS on HUVEC, hybridoma supernatant 1:50. The protocol: HUVECs were seeded at 15,000 cells/well and incubated with 100 μL of sample supernatant (at 1:50 dilution) for one hour at 4° C. The positive control was goat anti-KDR antibody (R&D Systems, Inc.), and negative controls included irrelevant hybridoma supernatants at the same dilution. The cells were then washed and incubated with Cy5-conjugated goat anti-human antibody at 5 μg/mL and 7-Amino-Actinomycin D (7AAD) at 5 μg/mL for 15 minutes at 4° C. Bound KDR was detected using FACS analysis.

Data on four molecules can be found in patent publication US20100260765A1 (AstraZeneca / MedImmune, published 2010).

T1 sequence (P35968 20-1356): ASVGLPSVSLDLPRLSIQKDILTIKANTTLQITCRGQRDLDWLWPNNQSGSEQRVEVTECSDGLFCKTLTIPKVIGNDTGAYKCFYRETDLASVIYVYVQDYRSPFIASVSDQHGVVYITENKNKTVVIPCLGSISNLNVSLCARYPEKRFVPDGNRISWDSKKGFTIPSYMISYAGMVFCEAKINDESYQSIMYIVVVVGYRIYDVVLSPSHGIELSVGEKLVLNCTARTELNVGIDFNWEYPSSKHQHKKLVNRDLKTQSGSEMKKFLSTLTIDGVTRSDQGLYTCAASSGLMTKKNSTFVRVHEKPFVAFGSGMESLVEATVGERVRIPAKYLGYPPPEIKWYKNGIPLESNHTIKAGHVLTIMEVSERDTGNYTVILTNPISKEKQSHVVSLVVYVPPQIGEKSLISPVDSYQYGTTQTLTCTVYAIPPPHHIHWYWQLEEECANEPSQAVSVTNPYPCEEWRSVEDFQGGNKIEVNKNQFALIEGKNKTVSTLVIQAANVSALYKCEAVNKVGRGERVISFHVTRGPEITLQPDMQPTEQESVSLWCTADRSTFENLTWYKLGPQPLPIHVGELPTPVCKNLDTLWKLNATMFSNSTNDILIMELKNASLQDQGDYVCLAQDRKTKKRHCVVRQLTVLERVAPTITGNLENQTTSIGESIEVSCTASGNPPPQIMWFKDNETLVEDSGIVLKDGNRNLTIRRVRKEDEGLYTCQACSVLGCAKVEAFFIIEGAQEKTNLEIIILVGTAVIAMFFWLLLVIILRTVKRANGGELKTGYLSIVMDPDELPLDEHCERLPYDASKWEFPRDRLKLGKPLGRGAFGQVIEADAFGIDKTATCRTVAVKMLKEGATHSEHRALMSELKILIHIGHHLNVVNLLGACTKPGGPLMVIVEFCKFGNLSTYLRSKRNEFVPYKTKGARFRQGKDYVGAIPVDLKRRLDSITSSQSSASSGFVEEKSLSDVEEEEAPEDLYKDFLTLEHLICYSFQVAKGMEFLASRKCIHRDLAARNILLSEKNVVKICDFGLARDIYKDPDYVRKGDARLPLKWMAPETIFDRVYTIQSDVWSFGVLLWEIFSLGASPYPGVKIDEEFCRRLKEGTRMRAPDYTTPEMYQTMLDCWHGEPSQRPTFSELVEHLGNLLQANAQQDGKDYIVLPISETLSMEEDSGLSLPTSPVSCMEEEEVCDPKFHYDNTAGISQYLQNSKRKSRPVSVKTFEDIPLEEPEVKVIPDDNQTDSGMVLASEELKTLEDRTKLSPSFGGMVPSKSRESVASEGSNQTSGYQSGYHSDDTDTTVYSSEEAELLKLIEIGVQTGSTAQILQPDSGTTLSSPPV
T2 sequence (P35968 20-764): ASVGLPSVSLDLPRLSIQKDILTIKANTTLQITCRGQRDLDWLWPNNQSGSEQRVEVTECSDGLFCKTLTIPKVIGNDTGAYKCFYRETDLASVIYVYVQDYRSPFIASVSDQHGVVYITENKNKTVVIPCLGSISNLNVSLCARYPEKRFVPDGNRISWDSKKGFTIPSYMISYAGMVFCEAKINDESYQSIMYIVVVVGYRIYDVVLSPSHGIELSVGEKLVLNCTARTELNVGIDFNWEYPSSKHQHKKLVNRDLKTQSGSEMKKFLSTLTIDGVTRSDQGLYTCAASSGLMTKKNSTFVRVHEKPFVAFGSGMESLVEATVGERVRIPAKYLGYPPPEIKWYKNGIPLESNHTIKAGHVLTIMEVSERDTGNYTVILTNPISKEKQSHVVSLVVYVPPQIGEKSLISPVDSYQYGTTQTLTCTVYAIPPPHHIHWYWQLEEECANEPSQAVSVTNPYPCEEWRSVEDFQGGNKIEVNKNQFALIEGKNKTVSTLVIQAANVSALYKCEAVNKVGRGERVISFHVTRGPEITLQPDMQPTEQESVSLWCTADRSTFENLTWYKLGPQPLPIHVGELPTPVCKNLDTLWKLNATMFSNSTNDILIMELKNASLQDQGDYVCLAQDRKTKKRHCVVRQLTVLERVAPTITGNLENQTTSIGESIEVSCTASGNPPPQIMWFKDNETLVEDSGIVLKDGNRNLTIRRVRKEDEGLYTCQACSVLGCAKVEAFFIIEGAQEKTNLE
T4 sequence (P35968 328-764): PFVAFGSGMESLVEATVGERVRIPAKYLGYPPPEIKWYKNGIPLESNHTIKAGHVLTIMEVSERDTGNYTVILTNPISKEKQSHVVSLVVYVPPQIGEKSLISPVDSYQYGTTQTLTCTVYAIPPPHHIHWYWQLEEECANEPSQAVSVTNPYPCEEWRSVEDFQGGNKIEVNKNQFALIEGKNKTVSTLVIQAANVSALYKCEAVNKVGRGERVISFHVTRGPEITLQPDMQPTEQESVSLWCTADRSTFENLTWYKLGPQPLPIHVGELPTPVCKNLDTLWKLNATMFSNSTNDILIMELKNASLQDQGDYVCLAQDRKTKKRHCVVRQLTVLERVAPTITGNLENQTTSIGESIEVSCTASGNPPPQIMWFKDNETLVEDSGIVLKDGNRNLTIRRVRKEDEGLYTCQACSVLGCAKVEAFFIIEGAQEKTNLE
T3 sequence (P35918 20-762): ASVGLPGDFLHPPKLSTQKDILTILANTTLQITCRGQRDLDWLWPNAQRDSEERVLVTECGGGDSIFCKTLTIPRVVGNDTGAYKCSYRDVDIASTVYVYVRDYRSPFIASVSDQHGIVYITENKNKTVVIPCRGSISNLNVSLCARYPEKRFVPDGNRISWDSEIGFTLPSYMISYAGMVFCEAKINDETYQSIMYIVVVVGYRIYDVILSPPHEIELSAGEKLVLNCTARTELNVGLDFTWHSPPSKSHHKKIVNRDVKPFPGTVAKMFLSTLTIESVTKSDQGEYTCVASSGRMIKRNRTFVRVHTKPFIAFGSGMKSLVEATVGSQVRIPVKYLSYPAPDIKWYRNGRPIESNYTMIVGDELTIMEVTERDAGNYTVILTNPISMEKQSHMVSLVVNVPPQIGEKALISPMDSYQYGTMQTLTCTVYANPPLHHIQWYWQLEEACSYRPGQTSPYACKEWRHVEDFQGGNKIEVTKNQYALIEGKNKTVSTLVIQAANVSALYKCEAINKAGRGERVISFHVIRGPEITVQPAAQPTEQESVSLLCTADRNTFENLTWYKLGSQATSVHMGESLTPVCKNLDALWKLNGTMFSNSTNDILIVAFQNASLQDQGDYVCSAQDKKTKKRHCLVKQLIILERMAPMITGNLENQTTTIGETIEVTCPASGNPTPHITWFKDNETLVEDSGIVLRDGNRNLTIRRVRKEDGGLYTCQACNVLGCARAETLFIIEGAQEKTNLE

B1: anti-KDR monoclonal antibody 24B3 (antibody, V domains shown)
VH: EVQLVESGGGLVKPGGSLRLSCAASGFTFSTYSMNWVRQAPGKGLEWVSFISGRSSYIYYADSVKGRFTISRDNAKNSLYLQMNSLRAEDTAVYYCSKDDWFEELWGQGTLVTVSS
VL: DIQMTQSPSSLSASVGDRVTITCRASQGIRSDLGWYQQKPGKAPKRLIYATSSLQSGVPSRFSGSGSGTEFTLTISSLQPEDFATYYCLQHNRYPWTFGQGTKVEIK
notes: Fully human mAb from XenoMouse (IgG2 or IgG4 strain); hybridoma supernatant
In the case of B1, in test [1], the “% Inhibition of VEGF165-mediated pTyr Activity, Average” value (“% Inhibition … Average” below) was 51%; the “% Inhibition of VEGF165-mediated pTyr Activity, n = 1” value (from here on “% Inhibition … n = 1”) is 69%; the “% Inhibition of VEGF165-mediated pTyr Activity, n = 2” value (“% Inhibition … n = 2” for short) worked out at 51%; the “% Inhibition of VEGF165-mediated pTyr Activity, n = 3” value (“% Inhibition … n = 3” for short) is 33%. For the same molecule, the “KDR OD(450 nm)” value in test [2] was determined as 6 OD450. Also, the “% Inhibition of VEGF-E-mediated pTyr Activity” value in test [3] turned out to be 40%. In test [4], the “HUVEC survival (n = 1) 1:10 dilution of supernatant (RLU)” value (“HUVEC survival (n = 1) 1:10 dilution” for short) was determined as 14100 RLU and the “HUVEC survival (n = 2) 1:20 dilution of supernatant (RLU)” value (“HUVEC survival (n = 2) 1:20 dilution” for short) came out at 2460 RLU. In test [5], the “OD (450 nm)” value was 0.094 OD450. Besides, the “b-KDRIg4-7 OD(450 nm)” value with b-KDRIg4-7-myc-his came to 0.065 OD450. The “FACS Geometric Mean” value in test [6] worked out at 26.

B2: anti-KDR monoclonal antibody 33B1 (antibody, V domains shown)
VH: EVQLVESGGGLVKPGGSLRLSCAASGFTFSSYTMNWVRQAPGKGLEWVSFIDSRSSYIYYADSVKGRFTISRDNAKNSLYLQMNSLRAEDTAVYYCSKDDWFEELWGQGTLVTVSS
VL: DIQMTQSPSSLSASVGDRVTITCRASQGIRNDLGWYQQKPGKAPKRLIYATSSLQSGVPSRFSGSGSGTEFTLTISSLQPEDFATYYCLHHNSFPWTFGQGTKVEIK
notes: as for B1
In the case of B2, in test [1], the “% Inhibition … Average” value worked out at 54%; the “% Inhibition … n = 1” value is 76%; the “% Inhibition … n = 2” value was 56%; the “% Inhibition … n = 3” value turned out to be 31%. Also, the “KDR OD(450 nm)” value in test [2] was 1.11 OD450. For the same molecule, in test [3], the “% Inhibition of VEGF-E-mediated pTyr Activity” value came out at 54%. Moreover, in test [4], the “HUVEC survival (n = 1) 1:10 dilution” value worked out at 19400 RLU and the “HUVEC survival (n = 2) 1:20 dilution” value turned out to be 12500 RLU. Also, the “OD (450 nm)” value in test [5] is 0.108 OD450. In addition, in the test with b-KDRIg4-7-myc-his, the “b-KDRIg4-7 OD(450 nm)” value was found to be 0.058 OD450. For the same molecule, in test [6], the “FACS Geometric Mean” value was found to be 25.

B3: anti-KDR monoclonal antibody 32G7 (antibody, V domains shown)
VH: EVQLVESGGGLVKPGGSLRLSCAASGFTISSYSMNWVRQAPGKGLEWVSFISSRSNYIYYADSVKGRFTISRDNAKNSLYLQMNSLRAEDTAVYYCSKDDWFEELWGQGTLVTVSS
VL: DIQMTQSPSSLSASVGDRVTITCRASQDIRNDLGWYQQKPGKAPKRLIYAASSLQSGVPSRFSGSGSGTEFTLTISSLQPEDFATYYCLQHNSFPWTFGQGTKVEIK
notes: as for B1
For B3, in test [1], the “% Inhibition … Average” value stood at 44%; the “% Inhibition … n = 1” value was 73%; the “% Inhibition … n = 2” value was 47%; the “% Inhibition … n = 3” value was 11%. Besides, in test [2], the “KDR OD(450 nm)” value came out at 1.07 OD450. The “% Inhibition of VEGF-E-mediated pTyr Activity” value in test [3] was 57%. For the same molecule, in test [4], the “HUVEC survival (n = 1) 1:10 dilution” value is 24900 RLU and the “HUVEC survival (n = 2) 1:20 dilution” value came out at 11900 RLU. For the same molecule, the “OD (450 nm)” value in test [5] came to 0.092 OD450. In addition, the “b-KDRIg4-7 OD(450 nm)” value with b-KDRIg4-7-myc-his was determined as 0.068 OD450. The “FACS Geometric Mean” value in test [6] was 28.

B4: anti-KDR monoclonal antibody 33E1 (antibody, V domains shown)
VH: QVQLQESGPGLVKPSQTLSLTCTVSGGSISSGDHYWSWIRQHPGKGLEWIGHIYYSGSTDYNPSLKSRVTISVDTSKNHFSLKLNSVTAADTAVYYCARTNSSSWSDWYFDLWGRGTLVTVSS
VL: DIVMTQSPDSLAVSLGERATINCKSSQSILYSSNNKNYLAWYQRKPGQPPILLIHWASTRESGVPDRFSGSGSRTDFTLTISSLQAEDVAVYYCQQYFITPWTFGQGTKVEIK
notes: as for B1
On to B4, for which, in test [1], the “% Inhibition … Average” value is 73%; the “% Inhibition … n = 1” value worked out at 88%; the “% Inhibition … n = 2” value amounted to 78%; the “% Inhibition … n = 3” value stood at 52%. Besides, the “KDR OD(450 nm)” value in test [2] was determined as 4.55 OD450. In addition, the “% Inhibition of VEGF-E-mediated pTyr Activity” value in test [3] is 46%. In test [4], the “HUVEC survival (n = 1) 1:10 dilution” value stood at 25700 RLU and the “HUVEC survival (n = 2) 1:20 dilution” value stood at 2310 RLU. Also, in test [5], the “OD (450 nm)” value turned out to be 0.097 OD450. In addition, the “b-KDRIg4-7 OD(450 nm)” value in the test with b-KDRIg4-7-myc-his was determined as 0.62 OD450. Besides, the “FACS Geometric Mean” value in test [6] was 14.
